{
  "source": "patent US8889621B2",
  "about": "“Inhibiting binding of FGF23 to the binary FGFR-Klotho complex for the treatment of hypophosphatemia” (New York University, priority 2009, dated 2014)",
  "key": {"[1]": {"molecular_target": "T1, FGFR1c-βKlotho-FGF19 (UniProt P11362+Q99N32)", "T1 construct": "the ectodomain of murine βKlotho (F53 to L995) was expressed in HEK293 cells; FLAG (C); made in house; host or cells: E. coli (FGFR1c, FGF19); HEK293 (βKlotho ectodomain)", "T1 sequence (P11362 142-365)": "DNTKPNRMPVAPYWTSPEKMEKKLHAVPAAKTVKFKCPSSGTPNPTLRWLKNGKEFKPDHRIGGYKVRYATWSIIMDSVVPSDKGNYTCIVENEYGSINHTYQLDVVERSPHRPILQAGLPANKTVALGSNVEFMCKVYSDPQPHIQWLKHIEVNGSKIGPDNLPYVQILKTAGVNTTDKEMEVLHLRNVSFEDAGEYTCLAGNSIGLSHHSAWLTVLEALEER", "T1 sequence (Q99N32 53-995)": "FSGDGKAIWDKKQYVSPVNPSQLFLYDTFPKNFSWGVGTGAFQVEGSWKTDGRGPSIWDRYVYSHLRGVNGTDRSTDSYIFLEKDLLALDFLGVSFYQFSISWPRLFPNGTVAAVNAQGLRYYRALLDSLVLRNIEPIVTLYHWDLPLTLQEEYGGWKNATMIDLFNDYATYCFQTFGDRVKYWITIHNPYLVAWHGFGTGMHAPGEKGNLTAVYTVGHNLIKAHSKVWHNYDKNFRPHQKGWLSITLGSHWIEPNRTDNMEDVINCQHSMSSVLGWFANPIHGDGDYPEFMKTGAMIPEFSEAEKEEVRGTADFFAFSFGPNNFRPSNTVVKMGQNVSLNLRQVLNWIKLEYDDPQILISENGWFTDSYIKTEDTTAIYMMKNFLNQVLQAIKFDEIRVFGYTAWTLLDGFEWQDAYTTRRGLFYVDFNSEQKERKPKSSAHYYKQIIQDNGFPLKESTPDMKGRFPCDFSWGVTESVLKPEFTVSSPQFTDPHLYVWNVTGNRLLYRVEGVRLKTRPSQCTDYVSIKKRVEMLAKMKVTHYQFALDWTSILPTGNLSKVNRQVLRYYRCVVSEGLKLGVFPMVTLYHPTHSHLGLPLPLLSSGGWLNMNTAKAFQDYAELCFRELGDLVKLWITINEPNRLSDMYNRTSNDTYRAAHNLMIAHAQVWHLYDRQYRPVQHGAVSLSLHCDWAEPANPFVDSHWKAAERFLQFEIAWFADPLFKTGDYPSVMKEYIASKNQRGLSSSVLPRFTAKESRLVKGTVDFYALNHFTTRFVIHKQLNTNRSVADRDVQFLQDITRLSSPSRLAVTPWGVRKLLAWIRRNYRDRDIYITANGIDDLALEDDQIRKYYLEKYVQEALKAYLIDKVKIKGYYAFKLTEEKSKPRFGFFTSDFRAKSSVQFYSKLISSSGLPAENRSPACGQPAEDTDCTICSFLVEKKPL", "assay": "SPR specificity: FGFR1c-βKlotho binding to immobilized FGF19^23-216", "parameters": "species or system human FGFR1c, murine βKlotho, human FGF19", "conditions": "10-fold molar excess over FGFR1c-βKlotho"}, "[2]": {"test_system": "binary FGFR-Klotho complex", "sequence (O35082 35-1014, one chain of several)": "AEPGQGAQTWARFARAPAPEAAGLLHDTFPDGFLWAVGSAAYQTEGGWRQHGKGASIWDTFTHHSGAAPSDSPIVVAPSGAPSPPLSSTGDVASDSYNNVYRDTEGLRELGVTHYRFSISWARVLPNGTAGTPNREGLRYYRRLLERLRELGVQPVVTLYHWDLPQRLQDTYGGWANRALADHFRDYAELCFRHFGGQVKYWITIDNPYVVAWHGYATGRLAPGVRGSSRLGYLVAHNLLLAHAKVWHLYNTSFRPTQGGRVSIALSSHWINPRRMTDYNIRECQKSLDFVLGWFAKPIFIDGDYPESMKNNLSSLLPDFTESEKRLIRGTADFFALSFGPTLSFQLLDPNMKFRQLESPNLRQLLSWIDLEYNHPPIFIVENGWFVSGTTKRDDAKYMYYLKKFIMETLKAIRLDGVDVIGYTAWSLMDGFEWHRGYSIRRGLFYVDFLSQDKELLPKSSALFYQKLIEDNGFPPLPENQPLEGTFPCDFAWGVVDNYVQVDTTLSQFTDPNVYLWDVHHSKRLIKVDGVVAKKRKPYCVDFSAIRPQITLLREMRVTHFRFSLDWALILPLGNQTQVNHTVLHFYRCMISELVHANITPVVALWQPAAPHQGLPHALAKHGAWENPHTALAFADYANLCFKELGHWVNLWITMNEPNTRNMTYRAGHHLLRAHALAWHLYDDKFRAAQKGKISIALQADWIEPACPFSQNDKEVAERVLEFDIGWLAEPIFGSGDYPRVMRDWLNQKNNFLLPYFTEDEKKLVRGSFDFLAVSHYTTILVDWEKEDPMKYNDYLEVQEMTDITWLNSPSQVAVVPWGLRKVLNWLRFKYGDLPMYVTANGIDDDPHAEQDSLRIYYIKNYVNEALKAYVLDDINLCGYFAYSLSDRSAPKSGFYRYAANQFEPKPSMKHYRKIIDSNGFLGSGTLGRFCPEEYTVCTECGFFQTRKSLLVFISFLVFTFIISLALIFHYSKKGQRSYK", "assay": "Pull-down / co-precipitation of FGF23 proteins with FGFR-Klotho complex", "format": "binding", "conditions": "HEK293-Klotho cell lysate", "experimental": "A pull-down assay may also be used to confirm the existence of a protein:protein interaction (i.e. FGF23^180-251 binding to the binary FGFR-Klotho complex). One aspect of the present invention utilizes pull-down assays. These assays involved subconfluent cultures of a HEK293 cell line ectopically expressing the FLAG-tagged membrane-spanning form of murine Klotho, which were harvested and lysed. Cell lysate was incubated with FGF23^28-251, FGF23^28-200, FGF23^28-179, FGF23^180-251, or protein sample buffer, and binary complexes of Klotho and endogenous FGFR were isolated from cell lysate using anti-FLAG M2 agarose beads. […]\nIn parallel, subconfluent HEK293-Klotho cells (Kurosu et al., “Regulation of Fibroblast Growth Factor-23 Signaling by Klotho,” J Biol Chem 281(10):6120-6123 (2006), which is hereby incorporated by reference in its entirety) were transfected with expression vectors for V5-tagged FGFR1c, FGFR3c, or FGFR4 (Kurosu et al., “Regulation of Fibroblast Growth Factor-23 Signaling by Klotho,” J Biol Chem 281(10):6120-6123 (2006), which is hereby incorporated by reference in its entirety) and binding of FGF23 proteins/peptides to Klotho-FGFR complexes isolated from cell lysate was analyzed. […]"}},
  "note": "Entries after “also recorded” stand apart in the source; their conditions may differ.",
  "data": [
    {"molecule": "FGF23^180-251: 72-amino acid C-terminal tail of human FGF23 (S180 to I251), expressed in E. coli (protein, listed as Homo sapiens) SAEDDSERDPLNVLKPRARMTPAPASCSQELPSAEDNSPMASDPLGVVRGGRVNTHAGGTGPEGCRPFAKFI", "values": [
      {"measurement": "inhibition of FGFR1c-βKlotho binding to immobilized FGF19", "setting": "[1]", "value": "did not affect; also recorded: no inhibition"},
      {"measurement": "co-precipitation with the binary FGFR-Klotho complex", "setting": "[2]", "value": "co-precipitated with each of the three binary FGFR-Klotho complexes"}
    ]}
  ]
}
